Literature values as cited in publication PMC12728182.

How the values were obtained:
ACK (Homo sapiens) = ACK (Homo sapiens) (UniProt Q07912)
PAK1 (Homo sapiens) = PAK1 (Homo sapiens) (UniProt Q13153)
WASP (Homo sapiens) = WASP (Homo sapiens) (UniProt P42768)
WASP (Homo sapiens), sequence (P42768 2-502): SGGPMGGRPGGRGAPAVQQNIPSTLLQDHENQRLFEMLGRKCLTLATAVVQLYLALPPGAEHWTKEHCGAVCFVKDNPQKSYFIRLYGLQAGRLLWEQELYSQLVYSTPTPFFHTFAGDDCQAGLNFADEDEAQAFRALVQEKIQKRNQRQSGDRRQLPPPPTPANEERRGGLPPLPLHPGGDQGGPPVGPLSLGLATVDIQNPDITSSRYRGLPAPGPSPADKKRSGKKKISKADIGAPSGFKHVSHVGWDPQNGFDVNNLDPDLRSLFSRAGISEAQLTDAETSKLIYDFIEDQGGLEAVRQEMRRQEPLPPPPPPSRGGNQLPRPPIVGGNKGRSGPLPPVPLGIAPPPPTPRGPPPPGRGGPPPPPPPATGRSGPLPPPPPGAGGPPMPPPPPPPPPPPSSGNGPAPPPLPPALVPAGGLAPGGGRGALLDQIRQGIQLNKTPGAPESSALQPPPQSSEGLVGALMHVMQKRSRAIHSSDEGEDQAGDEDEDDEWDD

Cdc42, sequence (P60953 1-188): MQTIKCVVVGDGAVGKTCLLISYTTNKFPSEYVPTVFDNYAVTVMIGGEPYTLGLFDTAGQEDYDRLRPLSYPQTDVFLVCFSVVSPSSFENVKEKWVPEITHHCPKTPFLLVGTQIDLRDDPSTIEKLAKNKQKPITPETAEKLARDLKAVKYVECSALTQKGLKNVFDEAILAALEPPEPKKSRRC
ACK (Homo sapiens), sequence (Q07912 whole entry): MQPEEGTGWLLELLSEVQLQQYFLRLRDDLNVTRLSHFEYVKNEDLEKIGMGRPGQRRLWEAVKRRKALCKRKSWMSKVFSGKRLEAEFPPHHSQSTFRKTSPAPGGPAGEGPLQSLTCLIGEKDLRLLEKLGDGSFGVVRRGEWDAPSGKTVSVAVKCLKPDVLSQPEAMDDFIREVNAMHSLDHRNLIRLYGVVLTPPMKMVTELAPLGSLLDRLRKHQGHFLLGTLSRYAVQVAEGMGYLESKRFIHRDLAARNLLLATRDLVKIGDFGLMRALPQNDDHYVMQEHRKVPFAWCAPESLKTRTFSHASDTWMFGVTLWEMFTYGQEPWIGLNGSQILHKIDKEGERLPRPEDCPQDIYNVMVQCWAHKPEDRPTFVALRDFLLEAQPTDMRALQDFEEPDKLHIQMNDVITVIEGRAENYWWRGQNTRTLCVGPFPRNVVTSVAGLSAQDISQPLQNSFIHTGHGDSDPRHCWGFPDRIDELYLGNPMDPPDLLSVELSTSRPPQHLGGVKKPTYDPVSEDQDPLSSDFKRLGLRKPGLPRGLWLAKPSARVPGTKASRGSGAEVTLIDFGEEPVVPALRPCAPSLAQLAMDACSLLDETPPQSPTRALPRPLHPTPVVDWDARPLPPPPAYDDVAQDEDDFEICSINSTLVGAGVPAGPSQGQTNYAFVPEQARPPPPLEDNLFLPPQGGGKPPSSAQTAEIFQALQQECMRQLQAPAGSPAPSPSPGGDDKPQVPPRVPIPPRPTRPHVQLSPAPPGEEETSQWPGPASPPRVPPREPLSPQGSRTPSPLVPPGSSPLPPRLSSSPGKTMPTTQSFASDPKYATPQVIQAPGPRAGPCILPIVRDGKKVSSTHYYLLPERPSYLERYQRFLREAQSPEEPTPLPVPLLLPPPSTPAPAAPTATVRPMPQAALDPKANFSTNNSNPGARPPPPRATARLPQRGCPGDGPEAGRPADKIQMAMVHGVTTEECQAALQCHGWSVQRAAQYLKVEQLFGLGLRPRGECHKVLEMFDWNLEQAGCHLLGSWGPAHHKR
PAK1 (Homo sapiens), sequence (Q13153 2-545): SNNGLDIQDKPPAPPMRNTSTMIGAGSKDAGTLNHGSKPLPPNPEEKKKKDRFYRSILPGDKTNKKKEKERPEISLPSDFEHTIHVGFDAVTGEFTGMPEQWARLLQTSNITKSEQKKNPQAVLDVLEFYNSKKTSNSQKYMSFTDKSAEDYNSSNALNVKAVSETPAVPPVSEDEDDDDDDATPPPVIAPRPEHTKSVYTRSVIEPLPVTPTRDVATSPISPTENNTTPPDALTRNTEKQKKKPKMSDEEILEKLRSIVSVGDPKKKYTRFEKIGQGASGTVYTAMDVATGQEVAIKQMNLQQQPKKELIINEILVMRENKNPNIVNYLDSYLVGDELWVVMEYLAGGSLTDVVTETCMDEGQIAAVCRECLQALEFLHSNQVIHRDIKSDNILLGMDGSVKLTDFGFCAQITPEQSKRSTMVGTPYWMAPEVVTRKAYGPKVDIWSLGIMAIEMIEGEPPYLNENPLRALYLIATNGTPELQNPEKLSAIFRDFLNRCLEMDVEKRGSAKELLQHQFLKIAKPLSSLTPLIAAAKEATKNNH

## Cdc42 (from UniProt P60953)
ACK (Homo sapiens)
  Kd: 770 nM
PAK1 (Homo sapiens)
  Kd: 620 nM
WASP (Homo sapiens)
  Kd: 55 nM
